From ChEMBL document CHEMBL4007386, “Design, synthesis of allosteric peptide activator for human SIRT1 and its biological evaluation in cellular model of Alzheimer's disease” (Eur J Med Chem, 2017) come the findings set out here.

Settings in all cases: Homo sapiens
Compound in data set [1]: N=C(N)NCCC[C@H](NC(=O)[C@H](Cc1c[nH]c2ccccc12)NC(=O)[C@@H](N)CS)C(=O)O
Put plainly: Allosteric activation of SIRT1 (unknown origin) expressed in bacterial expression system assessed as Vmax for substrate at 120 uM using Fluorophore labeled-Arg-His-Lys-Lys (Ac) as substrate incubated for 30 mins in presence of NAD+ by fluorimetric method (reference value: 1666.67 uM).

Compound in data set [2]: N=C(N)NCCC[C@H](NC(=O)[C@H](Cc1c[nH]c2ccccc12)NC(=O)[C@@H](N)CS)C(=O)O
Put plainly: Allosteric activation of SIRT1 (unknown origin) expressed in bacterial expression system assessed as apparent Km for substrate at 80 uM using Fluorophore labeled-Arg-His-Lys-Lys (Ac) as substrate incubated for 30 mins in presence of NAD+ by fluorimetric method (reference value: 507 uM).

Compound in data set [3]: N=C(N)NCCC[C@H](NC(=O)[C@H](Cc1c[nH]c2ccccc12)NC(=O)[C@@H](N)CS)C(=O)O
Nature of the data set: Allosteric activation of SIRT1 (unknown origin) expressed in bacterial expression system assessed as apparent Km for substrate at 120 uM using Fluorophore labeled-Arg-His-Lys-Lys (Ac) as substrate incubated for 30 mins in presence of NAD+ by fluorimetric method (reference value: 507 uM).

Compound in data set [4]: N=C(N)NCCC[C@H](NC(=O)[C@H](Cc1c[nH]c2ccccc12)NC(=O)[C@@H](N)CS)C(=O)O
Put plainly: Allosteric activation of SIRT1 (unknown origin) expressed in bacterial expression system assessed as Vmax for substrate at 160 uM using Fluorophore labeled-Arg-His-Lys-Lys (Ac) as substrate incubated for 30 mins in presence of NAD+ by fluorimetric method (reference value: 1666.67 uM).

Compound in data set [5]: N=C(N)NCCC[C@H](NC(=O)[C@H](Cc1c[nH]c2ccccc12)NC(=O)[C@@H](N)CS)C(=O)O
Nature of the data set: Allosteric activation of SIRT1 (unknown origin) expressed in bacterial expression system assessed as apparent Km for substrate at 40 uM using Fluorophore labeled-Arg-His-Lys-Lys (Ac) as substrate incubated for 30 mins in presence of NAD+ by fluorimetric method (reference value: 507 uM).

Compound in data set [6]: N=C(N)NCCC[C@H](NC(=O)[C@H](Cc1c[nH]c2ccccc12)NC(=O)[C@@H](N)CS)C(=O)O
Put plainly: Allosteric activation of SIRT1 (unknown origin) expressed in bacterial expression system assessed as Vmax for substrate at 40 uM using Fluorophore labeled-Arg-His-Lys-Lys (Ac) as substrate incubated for 30 mins in presence of NAD+ by fluorimetric method (reference value: 1666.67 uM).

Compound in data set [7]: N=C(N)NCCC[C@H](NC(=O)[C@H](Cc1c[nH]c2ccccc12)NC(=O)[C@@H](N)CS)C(=O)O
Nature of the data set: Allosteric activation of SIRT1 (unknown origin) expressed in bacterial expression system assessed as Vmax for substrate at 80 uM using Fluorophore labeled-Arg-His-Lys-Lys (Ac) as substrate incubated for 30 mins in presence of NAD+ by fluorimetric method (reference value: 1666.67 uM).

Compound in data set [8]: N=C(N)NCCC[C@H](NC(=O)[C@H](Cc1c[nH]c2ccccc12)NC(=O)[C@@H](N)CS)C(=O)O
Put plainly: Allosteric activation of SIRT1 (unknown origin) expressed in bacterial expression system assessed as apparent Km for substrate at 160 uM using Fluorophore labeled-Arg-His-Lys-Lys (Ac) as substrate incubated for 30 mins in presence of NAD+ by fluorimetric method (reference value: 507 uM).

B1: NAD-dependent protein deacetylase sirtuin-1 (Homo sapiens), Q96EB6 (protein)
chain: MADEAALALQPGGSPSAAGADREAASSPAGEPLRKRPRRDGPGLERSPGEPGGAAPEREVPAAARGCPGAAAAALWREAEAEAAAAGGEQEAQATAAAGEGDNGPGLQGPSREPPLADNLYDEDDDDEGEEEEEAAAAAIGYRDNLLFGDEIITNGFHSCESDEEDRASHASSSDWTPRPRIGPYTFVQQHLMIGTDPRTILKDLLPETIPPPELDDMTLWQIVINILSEPPKRKKRKDINTIEDAVKLLQECKKIIVLTGAGVSVSCGIPDFRSRDGIYARLAVDFPDLPDPQAMFDIEYFRKDPRPFFKFAKEIYPGQFQPSLCHKFIALSDKEGKLLRNYTQNIDTLEQVAGIQRIIQCHGSFATASCLICKYKVDCEAVRGDIFNQVVPRCPRCPADEPLAIMKPEIVFFGENLPEQFHRAMKYDKDEVDLLIVIGSSLKVRPVALIPSSIPHEVPQILINREPLPHLHFDVELLGDCDVIINELCHRLGGEYAKLCCNPVKLSEITEKPPRTQKELAYLSELPPTPLHVSEDSSSPERTSPPDSSVIVTLLDQAAKSNDDLDVSESKGCMEEKPQEVQTSRNVESIAEQMENPDLKNVGSSTGEKNERTSVAGTVRKCWPNRVAKEQISRRLDGNQYLFLPPNRYIFHGAEVYSDSEDDVLSSSSCGSNSDSGTCQSPSLEEPMEDESEIEEFYNGLEDEPDVPERAGGAGFGTDGDDQEAINEAISVKQEVTDMNYPSNKS
As to B1, the Vmax stood at 1110 µM in data set [1], 1110 µM in data set [4], 1430 µM in data set [6] and 1250 µM in data set [7]. The Km was 168 µM in data set [2], 72 µM in data set [3], 236 µM in data set [5] and 75 µM in data set [8].

The term Km denotes the substrate concentration at which the rate is half of its maximum.
